Results on 1 molecule are retold here after paper PMC11972402 (Nature Communications, 2025).

The assay concerns the target T1, Saccharomyces cerevisiae Rat1-Rai1 complex (Saccharomyces cerevisiae, UniProt Q02792 1-981; P53063 1-387).
T1 sequence (looked up) 1: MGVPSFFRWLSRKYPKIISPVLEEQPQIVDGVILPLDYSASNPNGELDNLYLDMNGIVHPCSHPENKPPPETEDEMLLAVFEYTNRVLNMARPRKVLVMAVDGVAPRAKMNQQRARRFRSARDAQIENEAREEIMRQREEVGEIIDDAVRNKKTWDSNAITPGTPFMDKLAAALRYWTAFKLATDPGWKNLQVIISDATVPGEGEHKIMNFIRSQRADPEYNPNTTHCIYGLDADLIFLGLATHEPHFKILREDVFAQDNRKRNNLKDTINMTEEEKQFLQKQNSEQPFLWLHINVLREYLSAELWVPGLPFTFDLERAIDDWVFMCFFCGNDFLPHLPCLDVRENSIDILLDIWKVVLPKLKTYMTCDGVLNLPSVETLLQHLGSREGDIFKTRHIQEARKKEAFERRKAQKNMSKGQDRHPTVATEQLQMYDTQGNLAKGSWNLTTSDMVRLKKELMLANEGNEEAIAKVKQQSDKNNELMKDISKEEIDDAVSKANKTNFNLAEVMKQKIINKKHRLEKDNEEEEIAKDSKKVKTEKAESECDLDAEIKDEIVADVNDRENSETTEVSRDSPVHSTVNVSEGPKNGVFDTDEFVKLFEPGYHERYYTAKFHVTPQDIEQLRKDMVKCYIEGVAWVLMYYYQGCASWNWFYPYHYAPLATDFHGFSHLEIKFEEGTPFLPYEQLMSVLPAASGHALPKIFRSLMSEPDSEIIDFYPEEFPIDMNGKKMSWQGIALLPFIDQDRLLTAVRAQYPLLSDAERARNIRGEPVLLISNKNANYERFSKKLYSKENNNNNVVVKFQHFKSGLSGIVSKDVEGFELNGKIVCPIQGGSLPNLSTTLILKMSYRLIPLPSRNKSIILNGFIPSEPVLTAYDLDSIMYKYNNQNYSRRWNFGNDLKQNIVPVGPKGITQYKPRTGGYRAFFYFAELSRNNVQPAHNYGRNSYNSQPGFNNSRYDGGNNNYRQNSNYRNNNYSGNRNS
T1 sequence (looked up) 2: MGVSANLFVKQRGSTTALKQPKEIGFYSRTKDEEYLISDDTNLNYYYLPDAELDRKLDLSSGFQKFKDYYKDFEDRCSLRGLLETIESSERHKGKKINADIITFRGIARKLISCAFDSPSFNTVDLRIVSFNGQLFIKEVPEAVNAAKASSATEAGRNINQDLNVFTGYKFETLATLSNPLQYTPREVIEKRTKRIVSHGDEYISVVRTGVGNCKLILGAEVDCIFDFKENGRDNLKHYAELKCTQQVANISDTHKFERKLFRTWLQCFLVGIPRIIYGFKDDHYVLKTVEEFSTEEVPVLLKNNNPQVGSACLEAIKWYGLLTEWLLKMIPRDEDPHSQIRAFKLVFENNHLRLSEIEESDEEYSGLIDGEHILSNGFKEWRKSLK
The assay can be described thus: pull-down.

As to SAKDPSRLNKNVDEDNIIPTYEVGDGDDDD (domain or fragment, Saccharomyces cerevisiae, UniProt Q05543 243-272, looked up) [N-terminal 6×His-MBP tagged S. cerevisiae Rtt103 RIS (243-272) wild-type], the binding result is “binds”.
